Target: T1, heterodimeric cofactor Ufd1p/Npl4p (S. cerevisiae, UniProt P53044 1-361; P33755 1-580)
T1 sequence (looked up) 1: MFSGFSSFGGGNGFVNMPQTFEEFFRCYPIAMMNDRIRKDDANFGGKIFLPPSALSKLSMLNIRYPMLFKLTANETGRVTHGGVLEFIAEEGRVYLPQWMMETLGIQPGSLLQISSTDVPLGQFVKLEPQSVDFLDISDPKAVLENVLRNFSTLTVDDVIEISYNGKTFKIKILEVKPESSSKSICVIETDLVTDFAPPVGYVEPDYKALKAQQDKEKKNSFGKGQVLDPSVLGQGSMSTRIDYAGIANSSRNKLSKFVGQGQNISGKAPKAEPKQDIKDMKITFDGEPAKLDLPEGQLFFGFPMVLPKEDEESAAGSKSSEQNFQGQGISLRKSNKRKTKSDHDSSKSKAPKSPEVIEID
T1 sequence (looked up) 2: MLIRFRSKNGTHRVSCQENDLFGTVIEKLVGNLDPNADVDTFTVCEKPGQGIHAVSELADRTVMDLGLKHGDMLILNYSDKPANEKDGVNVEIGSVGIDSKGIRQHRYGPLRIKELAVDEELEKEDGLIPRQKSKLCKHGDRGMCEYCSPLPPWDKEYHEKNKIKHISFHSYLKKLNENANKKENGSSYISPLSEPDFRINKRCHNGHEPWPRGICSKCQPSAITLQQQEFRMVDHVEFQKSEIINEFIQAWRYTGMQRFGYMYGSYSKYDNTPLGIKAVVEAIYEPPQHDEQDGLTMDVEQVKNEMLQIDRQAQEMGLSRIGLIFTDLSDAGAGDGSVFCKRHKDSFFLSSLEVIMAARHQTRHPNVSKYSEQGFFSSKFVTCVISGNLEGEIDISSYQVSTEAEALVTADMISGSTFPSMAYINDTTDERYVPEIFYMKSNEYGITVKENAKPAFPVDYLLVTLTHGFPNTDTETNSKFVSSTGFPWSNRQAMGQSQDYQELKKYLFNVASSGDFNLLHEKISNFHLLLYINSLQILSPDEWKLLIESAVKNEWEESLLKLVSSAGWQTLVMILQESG
Assay: SEC

binding result: binds
B1: Cdc48p ATPase (enzyme, S. cerevisiae, UniProt P25694 1-835, looked up)
chain: MGEEHKPLLDASGVDPREEDKTATAILRRKKKDNMLLVDDAINDDNSVIAINSNTMDKLELFRGDTVLVKGKKRKDTVLIVLIDDELEDGACRINRVVRNNLRIRLGDLVTIHPCPDIKYATRISVLPIADTIEGITGNLFDVFLKPYFVEAYRPVRKGDHFVVRGGMRQVEFKVVDVEPEEYAVVAQDTIIHWEGEPINREDEENNMNEVGYDDIGGCRKQMAQIREMVELPLRHPQLFKAIGIKPPRGVLMYGPPGTGKTLMARAVANETGAFFFLINGPEVMSKMAGESESNLRKAFEEAEKNAPAIIFIDEIDSIAPKRDKTNGEVERRVVSQLLTLMDGMKARSNVVVIAATNRPNSIDPALRRFGRFDREVDIGIPDATGRLEVLRIHTKNMKLADDVDLEALAAETHGYVGADIASLCSEAAMQQIREKMDLIDLDEDEIDAEVLDSLGVTMDNFRFALGNSNPSALRETVVESVNVTWDDVGGLDEIKEELKETVEYPVLHPDQYTKFGLSPSKGVLFYGPPGTGKTLLAKAVATEVSANFISVKGPELLSMWYGESESNIRDIFDKARAAAPTVVFLDELDSIAKARGGSLGDAGGASDRVVNQLLTEMDGMNAKKNVFVIGATNRPDQIDPAILRPGRLDQLIYVPLPDENARLSILNAQLRKTPLEPGLELTAIAKATQGFSGADLLYIVQRAAKYAIKDSIEAHRQHEAEKEVKVEGEDVEMTDEGAKAEQEPEVDPVPYITKEHFAEAMKTAKRSVSDAELRRYEAYSQQMKASRGQFSNFNFNDAPLGTTATDNANSNNSAPSGAGAAFGSNAEEDDDLYS

Source: article PMC4163015 (Cell, 2014)
